Our source for the BMP-6 stimulated alkaline phosphatase activity in mouse mesenchymal C3H10T1/2 cells (IC50) values is patent US20030229041A1.

The test deals with bone morphogenetic protein 6 (UniProt P22004). Description: cell-based or functional assay.
UniProt P22004, sequence (P22004 382-513 limits assumed): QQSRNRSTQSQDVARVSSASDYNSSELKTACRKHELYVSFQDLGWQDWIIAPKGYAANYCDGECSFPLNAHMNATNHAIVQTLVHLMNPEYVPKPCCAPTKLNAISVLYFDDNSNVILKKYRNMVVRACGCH

Consider “mouse noggin (from UniProt P97466 28-232)”, for which the BMP-6 stimulated alkaline phosphatase activity in mouse mesenchymal C3H10T1/2 cells (IC50) came out at 0.3 µg/mL.
